Results taken from patent publication US20090291088A1, “THERAPEUTIC COMBINATIONS OF ANTI-IGF-1R ANTIBODIES AND OTHER COMPOUNDS” (Biogen Idec MA Inc., priority 2008, published 2009).

Assays:
[1] = molecular target: All other mutant IGF-1R constructs (SD001-SD019 other than SD015); experiment: SPR, Fab over captured mutant receptor-Fc
[2] = molecular target: murine IGF-1R(1-903)-Fc (mouse; human) (UniProt Q60751); experiment: SPR, Fab over captured mIGF-1R-Fc
[3] = molecular target: murine IGF-1R(1-903)-Fc (mouse; human) (UniProt Q60751); experiment: SPR, Fab over captured mIGF-1R-Fc, 3 hr dissociation
[4] = molecular target: murine IGF-1R(1-903)-Fc (mouse; human) (UniProt Q60751); experiment: SPR, Fab over mIGF-1R-Fc captured by anti-Fc, apparent affinity
[5] = molecular target: murine IGF-1R(1-903)-Fc (mouse; human) (UniProt Q60751); experiment: SPR

Kd [1] [nM] | kon [2] [M⁻¹ s⁻¹] | koff [3] [s⁻¹] | Kd [4] [nM] | fold decrease in binding against human IGF-1R Fc [5] [fold] | Binder
5 | – | – | – | – | M14-C03 Fab (Fab, V domains shown) VH: EVQLLESGGGLVQPGGSLRLSCAASGFTFSKYMMSWVRQAPGKGLEWVSYISPSGGLTWYADSVKGRFTISRDNSKNTLYLQMNSLRAEDTAVYYCARDGARGYGMDVWGQGTTVTVSS VL: DIQMTQSPATLSLSPGERATLSCRASQSVSSYLAWYQQKPGQAPRLLIYDASNRATGIPARFSGSGSGTDFTLTISSLEPEDFAVYYCQQRSNWPPEVTFGPGTKVDIK
1 | 471 | 4.2e-05 | 89.1 | 100 | M13-C06 Fab (Fab, V domains shown) VH: EVQLLESGGGLVQPGGSLRLSCAASGFTFSIYRMQWVRQAPGKGLEWVSGISPSGGTTWYADSVKGRFTISRDNSKNTLYLQMNSLRAEDTAVYYCARWSGGSGYAFDIWGQGTMVTVSS VL: DIQMTQSPLSLSASVGDRVTITCQASRDIRNYLNWYQQKPGKAPKLLIYDASSLQTGVPSRFGGSGSGTDFSFTIGSLQPEDIATYYCQQFDSLPHTFGQGTKLEIK
